This passage reports activity and Kd results from US20250262323, “PCSK9 ENDONUCLEASE VARIANTS, COMPOSITIONS, AND METHODS OF USE” (Novo Nordisk A/S, published 2025).

The term Kd denotes the free concentration of one partner at which half of the binding sites on the other are occupied at equilibrium, for simple one-to-one binding. A lower Kd goes with higher affinity.

Data set [1] deals with T1, PCSK9.H7.C11 I-OnuI HE variant (synthetic construct (Ophiostoma …)).
T1 chain: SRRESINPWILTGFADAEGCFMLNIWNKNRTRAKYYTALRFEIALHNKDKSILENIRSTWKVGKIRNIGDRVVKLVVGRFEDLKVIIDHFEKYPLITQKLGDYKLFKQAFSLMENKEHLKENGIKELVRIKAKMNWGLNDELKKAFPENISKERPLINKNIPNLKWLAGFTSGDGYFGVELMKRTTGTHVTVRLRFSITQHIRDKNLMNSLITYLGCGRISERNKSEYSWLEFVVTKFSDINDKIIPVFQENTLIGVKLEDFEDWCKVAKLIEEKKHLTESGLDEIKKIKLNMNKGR
Put plainly: cell_activity; HEK 293T chromosomal mCherry reporter. On the procedure: The activity of reprogrammed I-OnuI HEs that target exon 4 of the PCSK9 gene was measured using a chromosomally integrated fluorescent reporter system (Certo et. al., 2011). Fully reprogrammed I-OnuI HEs that bind and cleave the PCSK9 target sequence were cloned into mammalian expression plasmids and then individually transfected into a HEK 293T […] cell line that contained the PCSK9 target sequence upstream of an out-of-frame gene encoding the fluorescent mCherry protein. Cleavage of the embedded target site by the HE and the accumulation of indels following DNA repair via the non-homologous end joining (NHEJ) pathway results in approximately one out of three repaired loci placing the fluorescent reporter gene back “in-frame”. The percentage of mCherry fluorescing HEK 293T cells is therefore used a readout of endonuclease activity at the chromosomally embedded target sequence. […] FIG. 3 (top panels).
A secondary I-OnuI variant library was next generated by performing random mutagenesis on the PCSK9.H7 HE variant (e.g., SEQ ID NO: 6). Display-based flow sorting was performed under more stringent cleavage conditions in an effort to isolate variants with improved catalytic efficiency. FIG. 3 (bottom panel). This process led to variant PCSK9.H7.C11 (SEQ ID NO: 7) with an approximately 2-fold higher rate of mCherry expressing cells.

The target in data set [2] is T1, PCSK9.H7.C11 I-OnuI HE variant. In words: flow; sub-nanomolar affinity; yeast surface display substrate titration; exact value only in figure. The note with it: tags: yeast surface display.

B1: PCSK9 exon 4 HE target site (dsDNA)
DNA 1: ATCTAAGAGATACACCTCCACC
DNA 2: GGTGGAGGTGTATCTCTTAGAT
In the case of B1, the activity in data set [1] was ~2 fold vs PCSK9.H7. Further, the Kd in data set [2] was < 1 nM.
